Data published in IntAct's records for PubMed 16820411.

B1: Intercellular adhesion molecule 5 (Homo sapiens), Q9UMF0 (parent)
chain: MPGPSPGLRRALLGLWAALGLGLFGLSAVSQEPFWADLQPRVAFVERGGSLWLNCSTNCPRPERGGLETSLRRNGTQRGLRWLARQLVDIREPETQPVCFFRCARRTLQARGLIRTFQRPDRVELMPLPPWQPVGENFTLSCRVPGAGPRASLTLTLLRGAQELIRRSFAGEPPRARGAVLTATVLARREDHGANFSCRAELDLRPHGLGLFENSSAPRELRTFSLSPDAPRLAAPRLLEVGSERPVSCTLDGLFPASEARVYLALGDQNLSPDVTLEGDAFVATATATASAEQEGARQLVCNVTLGGENRETRENVTIYSFPAPLLTLSEPSVSEGQMVTVTCAAGAQALVTLEGVPAAVPGQPAQLQLNATENDDRRSFFCDATLDVDGETLIKNRSAELRVLYAPRLDDSDCPRSWTWPEGPEQTLRCEARGNPEPSVHCARSDGGAVLALGLLGPVTRALSGTYRCKAANDQGEAVKDVTLTVEYAPALDSVGCPERITWLEGTEASLSCVAHGVPPPDVICVRSGELGAVIEGLLRVAREHAGTYRCEATNPRGSAAKNVAVTVEYGPRFEEPSCPSNWTWVEGSGRLFSCEVDGKPQPSVKCVGSGGATEGVLLPLAPPDPSPRAPRIPRVLAPGIYVCNATNRHGSVAKTVVVSAESPPEMDESTCPSHQTWLEGAEASALACAARGRPSPGVRCSREGIPWPEQQRVSREDAGTYHCVATNAHGTDSRTVTVGVEYRPVVAELAASPPGGVRPGGNFTLTCRAEAWPPAQISWRAPPGALNIGLSSNNSTLSVAGAMGSHGGEYECAATNAHGRHARRITVRVAGPWLWVAVGGAAGGAALLAAGAGLAFYVQSTACKKGEYNVQEAESSGEAVCLNGAGGGAGGAAGAEGGPEAAGGAAESPAEGEVFAIQLTSA

Variants of: B1
Details: with actn1_chick ACTN1, P05094
actn1_chick ACTN1, P05094, sequence (P05094 whole entry): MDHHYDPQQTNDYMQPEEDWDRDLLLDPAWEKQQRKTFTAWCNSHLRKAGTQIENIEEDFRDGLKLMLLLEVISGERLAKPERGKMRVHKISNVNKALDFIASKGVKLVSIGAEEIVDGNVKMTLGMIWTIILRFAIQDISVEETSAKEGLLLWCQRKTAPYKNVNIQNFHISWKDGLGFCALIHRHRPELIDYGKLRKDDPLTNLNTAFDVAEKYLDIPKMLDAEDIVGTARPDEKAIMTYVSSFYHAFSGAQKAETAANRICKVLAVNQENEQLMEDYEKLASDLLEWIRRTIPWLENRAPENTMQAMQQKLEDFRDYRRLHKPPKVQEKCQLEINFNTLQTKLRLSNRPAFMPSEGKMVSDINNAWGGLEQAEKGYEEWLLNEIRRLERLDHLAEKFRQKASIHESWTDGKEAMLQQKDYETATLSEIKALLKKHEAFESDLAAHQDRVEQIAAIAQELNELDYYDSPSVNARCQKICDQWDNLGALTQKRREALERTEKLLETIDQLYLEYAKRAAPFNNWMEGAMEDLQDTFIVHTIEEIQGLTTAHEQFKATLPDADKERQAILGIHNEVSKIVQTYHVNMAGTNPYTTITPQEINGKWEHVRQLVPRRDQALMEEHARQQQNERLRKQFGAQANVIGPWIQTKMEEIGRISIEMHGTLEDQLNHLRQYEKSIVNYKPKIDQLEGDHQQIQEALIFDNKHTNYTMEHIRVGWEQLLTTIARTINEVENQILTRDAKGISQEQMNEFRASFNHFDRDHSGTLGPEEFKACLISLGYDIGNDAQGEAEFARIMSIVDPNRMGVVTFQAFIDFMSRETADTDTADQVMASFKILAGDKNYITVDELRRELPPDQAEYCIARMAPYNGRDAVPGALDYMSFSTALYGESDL

Row | Variant | effect of a mutation on the interaction
1 | K866A;K867A | disrupting interaction
2 | K866R | decreasing interaction
3 | K866A | decreasing interaction
4 | K867A | disrupting interaction
5 | K867R | decreasing interaction
